The text below walks through data of patent US9395368B2, “Methods, agents and peptides for inducing an immune response to matrix metalloproteinase-2 expressing tumors” (New York University, priority 2010, dated 2016).

For assay [1], the system named is Cord blood-derived CD4+/CD25- cells. Put plainly: Priming of naive cord blood CD4+ T cells with autologous CD4- cells loaded with different sources of MMP-2. Format: cell-based, human. As for the experimental part:
Cord blood-derived CD4^+/CD25^− cells from 11 donors were stimulated with irradiated autologous CD4^− cells loaded either with active MMP-2, heat-inactivated (HI) MMP-2 or with MMP-2 pre-incubated with a specific inhibitor (+I). After 15 days, CD4^+ T cells were stimulated with the MMP-2 peptide pool (2 μM) for 6 h before intracellular staining of cytokines. (A) Density plots representing cytokine production by CD4^+ T cells are shown for the representative donor CB35 primed to MMP-2 either in its active form or after heat-inactivation. Numbers indicate percentages of cytokine-producing cells upon MMP-2 peptide stimulation. […] MMP-2 enzymatic activity was controlled (FIG. 13C-D). For each cytokine, 3 paired t-tests were used to compare active MMP-2 to heat inactivated MMP-2, to MMP-2+I, and to MMP-2 peptides. P values≦0.0167 (*) were considered statistically significant using a Bonferroni correction for 3 comparisons.
T Cell culture, stimulation and priming. Peripheral blood mononuclear cells (PBMCs) were purified from healthy donor-(HD) or cord blood donor-(CB) derived buffy coats (New York Blood Center) by Ficoll-Paque Plus (GE Healthcare) centrifugation. CD4^+/CD25^− cells were enriched (>90%) by magnetic cell sorting (Miltenyi Biotec) and primed/stimulated for 12-15 days either with irradiated (35Gy) autologous CD4^− cells or with autologous mature DCs in IMDM (GIBCO) supplemented with 1 mM HEPES (Life Technologies), 2 mM L-glutamine (Sigma), streptomycin (100 UI/mL)/penicillin (100 μg/mL) (Sigma) and 5% heat inactivated pooled human serum (PHS; Valley Biomedical) in the presence of rhIL-2 (10 UI/mL) and IL7 (5 ng/mL) (R&D Systems). Antigen presenting cells (CD4^− cells or DCs) were loaded either with peptides (2 μM) or with the MMP-2 protein (10 μg/mL) for 2 and 5 h, respectively. DCs were matured using the TLR3 agonist poly(I:C) at 5 μg/mL/10^6 DCs (Amersham). To generate T cell clones, we originally relied on our published methodology (Godefroy et al., 2006; Godefroy et al., 2007; the entire contents of each of which is incorporated herein by reference), involving enrichment of IFNγ-secreting cells upon short-term culture and peptide stimulation to generate MMP-2 responsive clones. Briefly, CD4^+ T cells were stimulated by CD4^− cells irradiated and pulsed with peptides for 12 days in the presence of rhIL-2 and rhIL-7. CD4^+ T cells were then restimulated with peptides for 3 hours before capturing IFNγ-secreting specific cells using a bispecific antibody coating T cells and capturing produced IFNγ. Positive cells were purified magnetically before being cloned. Although MMP-2-specific cells could be isolated, it was realized that IFNγ secretion was marginal compared to their secretion of IL-4 and TNFα. IFNγ-secreting cells in response to MMP-2 peptide pool were enriched by cytokine-guided magnetic cell sorting (Miltenyi Biotec) as described above and cloned the following day by limiting dilution in the presence of irradiated allogeneic PBMCs, 1 μg/mL phytohemagglutinin-L (Sigma) and 150 UI/mL rhIL-2. Tumor infiltrating lymphocytes (TILs) were provided by Pr. F. Jotereau and B. Dréno. They were obtained from tumor-invaded lymph nodes of melanoma patients (stage Mb) and expanded ex vivo. These patients received autologous TILs and IL-2 infusions in a clinical trial (Labarriere et al., 2002). This protocol was approved by the Institutional Ethics Committee and registered with regulatory state authority in France (Nantes).
Intracellular staining T-bet and GATA-3 expression was measured on resting T cells. Cells were fixed (4% paraformaldehyde for 10 min at RT), permeabilized with 0.1% saponin, and stained for intracellular transcription factors. Cytokine production by T cells was also assessed by intracellular staining T cells were stimulated with 2 μM overlapping peptides. After 1 h, 10 μg/mL brefeldin A was added to the cells. […]

The test system of assay [2] is human basophils. Description: Basophil activation by MMP-2 (IL-4, TSLP, CD203c). Format: cell-based.
Assay [3] relates to CD40, CD80, CD83, CD86, HLA-DR and CCR7 on DCs. Description: Expression of maturation markers by DCs. Format: cell-based, human. As for the experimental part: Antibodies. Allophycocyanin-conjugated antibody to CCR-7 (150503) was purchased from R&D Systems. Unconjugated (10 μg/mL for blocking experiments) or phycoerythrin-conjugated antibody to OX40L (11C3.1) was from Biolegend. Blocking antibody to IL-4 (8F12; 10 μg/mL) was from Acris. Antibodies to human Vβ chains covering 70% of the repertoire (10Test Beta Mark; Beckman Coulter) were used according to the manufacturer's instructions. Fluorescein isothiocyanate-conjugated antibody to IL-12p35/IL-12p70 (B-T21) and IFNAR1 (EP899Y) were from Abcam. Phycoerythrine-conjugated antibodies to IL-12p40/IL-12p70 (C8.6), IL-10 (B-T10), CD203c (FR3-16A11) were from Miltenyi Biotec. Blocking antibody to HLA-DQ (SPVL3; 20 μg/mL) was from NeoMarkers. […]
Dendritic cell preparation and activation. […] Immature DCs were harvested on day 5 and matured using poly(I:C) at 5 μg/mL/10^6 DCs (Amersham) Secretion of IL-12p70, TNFα, IL-1β, IL-6, IL-8 and IL-10 was assessed on both immature and mature DCs using the Human Inflammatory Cytokine Cytometric Bead Array (BD Pharmingen).
We next evaluated whether DCs could be involved in the polarization of MMP-2-specific CD4^+ T cells.

B1: active MMP-2: Purified human MMP-2 (mixture of the proenzyme (50%) and the active form (50%)) purchased from Biomol (protein, listed as Homo sapiens)
chain: MEALMARGALTGPLRALCLLGCLLSHAAAAPSPIIKFPGDVAPKTDKELAVQYLNTFYGCPKESCNLFVLKDTLKKMQKFFGLPQTGDLDQNTIETMRKPRCGNPDVANYNFFPRKPKWDKNQITYRIIGYTPDLDPETVDDAFARAFQVWSDVTPLRFSRIHDGEADIMINFGRWEHGDGYPFDGKDGLLAHAFAPGTGVGGDSHFDDDELWTLGEGQVVRVKYGNADGEYCKFPFLFNGKEYNSCTDTGRSDGFLWCSTTYNFEKDGKYGFCPHEALFTMGGNAEGQPCKFPFRFQGTSYDSCTTEGRTDGYRWCGTTEDYDRDKKYGFCPETAMSTVGGNSEGAPCVFPFTFLGNKYESCTSAGRSDGKMWCATTANYDDDRKWGFCPDQGYSLFLVAAHEFGHAMGLEHSQDPGALMAPIYTYTKNFRLSQDDIKGIQELYGASPDIDLGTGPTPTLGPVTPEICKQDIVFDGIAQIRGEIFFFKDRFIWRTVTPRDKPMGPLLVATFWPELPEKIDAVYEAPQEEKAVFFAGNEYWIYSASTLERGYPKPLTSLGLPPDVQRVDAAFNWSKNKKTYIFAGDKFWRYNEVKKKMDPGFPKLIADAWNAIPDNLDAVVDLQGGGHSYFFKGAYYLKLENQSLKSVKFGSIKSDWLGC
Consider B1, for which, in assay [1] (11 cord blood donors, 15 days after priming, after background subtraction), the “percentage of MMP-2-specific CD4+ T cells secreting IL-4, mean” value is 2.38%. Further, the “IFNγ and IL-2 production compared to inactive MMP-2 or peptides” value in assay [1] (primed cells, 15 days) is “less”. The “production of IL-4 by basophils” value in assay [2] (MMP-2 0.5 and 5 μg/mL) is reported as “neither induced”. For the same molecule, the “production of TSLP by basophils” value in assay [2] (MMP-2 0.5 and 5 μg/mL, 16 h) is listed as “neither induced”. In addition, the “expression of basophil activation marker CD203c” value in assay [2] (PBMCs, 6 h) is “did not increase”. In addition, the “expression levels of maturation markers CD40, CD80, CD83, CD86, HLA-DR and CCR7” value in assay [3] is listed as “not significantly affected”.
